Substitutions are numbered along the chain they refer to. Numbered stars: 1 amine (or outer) side, 2 acyl side, 3 side chain; on linkers, the order of the positions; unused ones are H or OH. Square brackets hold non-standard residues; d marks the D form. Side chains are listed from the residue outwards. Ends that are not written are not given here. * marks the point of attachment. C20 diacid = O=C(O)CCCCCCCCCCCCCCCCCCC(=O)*; γGlu = O=C(O)[C@H](CCC(=O)[*:2])N[*:1]; AEEA = NCCOCCOCC(=O)O; Aib = CC(C)(N)C(=O)O
B1: Peptide 216 (peptide)
peptide: YXEGTXTSDYSIXLDEKAQXEFIXYLIEGGPSSGAPPPS
modifications: Aib2; αMeF(2F)6; αMeL13; K17((2-[2-(2-Amino-ethoxy)-ethoxy]-acetyl)2-(εK)-CO-(CH2)18-CO2H); Aib20; D-Glu24; C-terminal NH2
B2: Peptide 217 (peptide)
peptide: B1 peptide with E16X
modifications: Aib2; αMeF(2F)6; αMeL13; Dab16; K17((2-[2-(2-Amino-ethoxy)-ethoxy]-acetyl)2-(γGlu)-CO-(CH2)18-CO2H); Aib20; D-Glu24; C-terminal NH2
B3: Peptide 218 (peptide)
peptide: B1 peptide with E16X
modifications: Aib2; αMeF(2F)6; αMeL13; Dap16; K17((2-[2-(2-Amino-ethoxy)-ethoxy]-acetyl)2-(γGlu)-CO-(CH2)18-CO2H); Aib20; D-Glu24; C-terminal NH2
B4: Peptide 26 (peptide)
peptide: Y[Aib]EGTFTSDYSIK([AEEA-AEEA-γGlu-C20 diacid])LDKIAQ[Aib]AFIEYLIEGGPSSGAPPPS-NH2
modifications: N-terminus assumed
SMILES: CC[C@H](C)[C@H](NC(=O)[C@H](CCCCN)NC(=O)[C@H](CC(=O)O)NC(=O)[C@H](CC(C)C)NC(=O)[C@H](CCCCNC(=O)COCCOCCNC(=O)COCCOCCNC(=O)CC[C@H](NC(=O)CCCCCCCCCCCCCCCCCCC(=O)O)C(=O)O)NC(=O)[C@@H](NC(=O)[C@H](CO)NC(=O)[C@H](Cc1ccc(O)cc1)NC(=O)[C@H](CC(=O)O)NC(=O)[C@H](CO)NC(=O)[C@@H](NC(=O)[C@H](Cc1ccccc1)NC(=O)[C@@H](NC(=O)CNC(=O)[C@H](CCC(=O)O)NC(=O)C(C)(C)NC(=O)[C@@H](N)Cc1ccc(O)cc1)[C@@H](C)O)[C@@H](C)O)[C@@H](C)CC)C(=O)N[C@@H](C)C(=O)N[C@@H](CCC(N)=O)C(=O)NC(C)(C)C(=O)N[C@@H](C)C(=O)N[C@@H](Cc1ccccc1)C(=O)N[C@H](C(=O)N[C@@H](CCC(=O)O)C(=O)N[C@@H](Cc1ccc(O)cc1)C(=O)N[C@@H](CC(C)C)C(=O)N[C@H](C(=O)N[C@@H](CCC(=O)O)C(=O)NCC(=O)NCC(=O)N1CCC[C@H]1C(=O)N[C@@H](CO)C(=O)N[C@@H](CO)C(=O)NCC(=O)N[C@@H](C)C(=O)N1CCC[C@H]1C(=O)N1CCC[C@H]1C(=O)N1CCC[C@H]1C(=O)N[C@@H](CO)C(N)=O)[C@@H](C)CC)[C@@H](C)CC
B5: Peptide 219 (peptide)
peptide: YXEGTXTSDYSIXLDEKAQXEFIXYLIEGGPSSG
modifications: Aib2; αMeF(2F)6; αMeL13; K17((2-[2-(2-Amino-ethoxy)-ethoxy]-acetyl)2-(γGlu)-CO-(CH2)16-CO2H); Aib20; D-Glu24; C-terminal NH2
B6: Peptide 220 (peptide)
peptide: YXEGTXTSDYSIXLDEKAQXEFIXYLIEGG
modifications: Aib2; αMeF(2F)6; αMeL13; K17((2-[2-(2-Amino-ethoxy)-ethoxy]-acetyl)2-(γGlu)-CO-(CH2)16-CO2H); Aib20; D-Glu24; C-terminal NH2
B7: Peptide 221 (peptide)
peptide: B1 peptide
modifications: Aib2; αMeF(2F)6; αMeL13; K17((2-[2-(2-Amino-ethoxy)-ethoxy]-acetyl)2-(γGlu)-CO-(CH2)16-CO2H); Aib20; D-Glu24; C-terminal NH2
B8: Peptide 222 (peptide)
peptide: B1 peptide with Y25X
modifications: Aib2; αMeF(2F)6; αMeL13; K17((2-[2-(2-Amino-ethoxy)-ethoxy]-acetyl)2-(γGlu)-CO-(CH2)18-CO2H); Aib20; D-Glu24; αMeY25; C-terminal NH2
B9: Peptide 223 (peptide)
peptide: B1 peptide with X24E, Y25X
modifications: Aib2; αMeF(2F)6; αMeL13; K17((2-[2-(2-Amino-ethoxy)-ethoxy]-acetyl)2-(γGlu)-CO-(CH2)18-CO2H); Aib20; αMeY25; C-terminal NH2
B10: Peptide 224 (peptide)
peptide: B1 peptide
modifications: Aib2; αMeF(2F)6; Aib13; K17((2-[2-(2-Amino-ethoxy)-ethoxy]-acetyl)2-(γGlu)-CO-(CH2)18-CO2H); Aib20; D-Glu24; C-terminal NH2
B11: Peptide 227 (peptide)
peptide: B1 peptide
modifications: Aib2; αMeF6; αMeL13; K17((2-[2-(2-Amino-ethoxy)-ethoxy]-acetyl)2-(γGlu)-CO-(CH2)18-CO2H); Aib20; D-Glu24; C-terminal NH2
B12: Peptide 228 (peptide)
peptide: B5 peptide with E16K
modifications: Aib2; αMeF6; αMeL13; K17((2-[2-(2-Amino-ethoxy)-ethoxy]-acetyl)2-(γGlu)-CO-(CH2)18-CO2H); Aib20; D-Glu24; C-terminal NH2
B13: Peptide 29 (peptide)
peptide: Y[Aib]EGTFTSDYSILLDK([AEEA-AEEA-γGlu-C20 diacid])IAQ[Aib]AFIEYLIEGGPSSGAPPPS-NH2
modifications: N-terminus assumed
SMILES: CC[C@H](C)[C@H](NC(=O)[C@H](CCCCNC(=O)COCCOCCNC(=O)COCCOCCNC(=O)CC[C@H](NC(=O)CCCCCCCCCCCCCCCCCCC(=O)O)C(=O)O)NC(=O)[C@H](CC(=O)O)NC(=O)[C@H](CC(C)C)NC(=O)[C@H](CC(C)C)NC(=O)[C@@H](NC(=O)[C@H](CO)NC(=O)[C@H](Cc1ccc(O)cc1)NC(=O)[C@H](CC(=O)O)NC(=O)[C@H](CO)NC(=O)[C@@H](NC(=O)[C@H](Cc1ccccc1)NC(=O)[C@@H](NC(=O)CNC(=O)[C@H](CCC(=O)O)NC(=O)C(C)(C)NC(=O)[C@@H](N)Cc1ccc(O)cc1)[C@@H](C)O)[C@@H](C)O)[C@@H](C)CC)C(=O)N[C@@H](C)C(=O)N[C@@H](CCC(N)=O)C(=O)NC(C)(C)C(=O)N[C@@H](C)C(=O)N[C@@H](Cc1ccccc1)C(=O)N[C@H](C(=O)N[C@@H](CCC(=O)O)C(=O)N[C@@H](Cc1ccc(O)cc1)C(=O)N[C@@H](CC(C)C)C(=O)N[C@H](C(=O)N[C@@H](CCC(=O)O)C(=O)NCC(=O)NCC(=O)N1CCC[C@H]1C(=O)N[C@@H](CO)C(=O)N[C@@H](CO)C(=O)NCC(=O)N[C@@H](C)C(=O)N1CCC[C@H]1C(=O)N1CCC[C@H]1C(=O)N1CCC[C@H]1C(=O)N[C@@H](CO)C(N)=O)[C@@H](C)CC)[C@@H](C)CC
B14: Peptide 230 (peptide)
peptide: B1 peptide with E16H
modifications: Aib2; αMeF(2F)6; αMeL13; K17((2-[2-(2-Amino-ethoxy)-ethoxy]-acetyl)2-(γGlu)-CO-(CH2)18-CO2H); Aib20; D-Glu24; C-terminal NH2
B15: Peptide 233 (peptide)
peptide: B1 peptide with Y10X, E16X
modifications: not fully specified; Aib2; αMeF(2F)6; 4Pal10; αMeL13; Dab16; K17((2-[2-(2-Amino-ethoxy)-ethoxy]-acetyl)2-(γGlu)-CO-(CH2)16-CO2H); Aib20; D-Glu24; C-terminal NH2
B16: Peptide 236 (peptide)
peptide: B1 peptide with E16X, Y25X
modifications: not fully specified; Aib2; αMeF(2F)6; αMeL13; Orn16; K17((2-[2-(2-Amino-ethoxy)-ethoxy]-acetyl)2-(γGlu)-CO-(CH2)16-CO2H); Aib20; D-Glu24; αMeY25; C-terminal NH2

Target: human GLP-1 receptor (human, UniProt P43220 24-463)
Test: cell-based or functional assay

Point of comparison: B3, “hGLPIR cAMP EC50 ratio” value 1.02. Against it:
- B1 — higher, 1.31
- B2 — higher, 1.14
- B4 — lower, 0.238
- B5 — higher, 1.03
- B6 — higher, 1.36
- B7 — lower, 0.795
- B8 — higher, 1.55
- B9 — lower, 0.962
- B10 — higher, 1.06
- B11 — higher, 1.07
- B12 — higher, 1.1
- B13 — lower, 0.0671
- B14 — lower, 0.599
- B15 — lower, 0.535
- B16 — higher, 1.65
